From the DeepSol protein solubility set

experiment: soluble on expression in E. coli; label from the status in PepcDB or PDB records

Row | Sequence | soluble on expression in E. coli
1 | AEPESCGTVRFSDVGWTDITATTATATTILEALGYETDVKVLSVPVTYTSLKNKDIDVFLGNWMPTMEADIAPYREDKSVETVRENLAGAKYTLATNAKGAELGIKDFKDIAAHKDELDGKIYGIEPGNDGNRLIIDMVEKGTFDLKGFEVVESSEQGMLAQVARAEKSGDPIVFLGWEPHPMNANFKLTYLSGGDDVFGPNYGGATVHTNVRAGYTTECPNVDKLLQNLSFSLQMENEIMGKILNDGEDPEKAAAAWLKDNPQSIEPWLSGVATKDGGDGLAAVKAALGLEHHHHHH | soluble
2 | MKLPDELRQAYQKNARQFSWVFPLETEQTALAIFAAGEKAYQGERFFWQTPKKDFALVGFGYETILKGAETETHQLNNFLKKEAATRFQNMSISGTGALLFGGLPFDTEQTPTEAWGELGEGWFYLPSILFTFSGSRIYGTLNFSGSSEQEVEERWSTLVAQFDRLLATCEELPAVAETKIDKEEVAVTEWLQAVNETVAVLREDGPLKKVVLARQLAVSSPEKIRSNQVLVNLMAQQQNTYLFALEAKDTSFIGATPERLLLGTKETFATACIAGTIKTGQTPEETKTLGAQLLQDRKNTGEHQIVVERLAKELAKMTTSENSIQAPIILENRDVQHLYVPISGQRKPGISFLESVMQLHPTPALGGEPKELAVEWIRQYEPGSRGLYGAPIGWISGNDDSGEFAVALRSGVFAGQQGVLYAGCGIVADSQAELEREETKIKFQPMLRGIGGQV | not soluble
3 | MWHGMGDCCCNPLSMGSVKKLFEEQIPGVYVHSLQLGSSITKDIEHGFYANTNELVYMACIKIKNDPELKNGYNAIGFSQGAQFLRAVAQRCPNPPMKNLVSVGGQHQGVFGAPYCIGDNIMCNGVRRLIDLGAYLPFVQKRVVQAQYWHDPNQVEEYKKRSIFLADINNENNNNPTYKRNLLSLKNLVLVKFNQDHMVVPKDSSWFGFYKDGDIDTILPMNETDLYKEDRIGLKKLHESGRIHFMDVDGDHLQIPRSVLVNDIIKKYFM | not soluble
4 | MAEGLRERKKRQTRQYISDVATGLFLERGFEAVTVAEVADAANVSVNTVYNYFPAKEDLFLDRSKGVIDRLSRWVRGRRDGESAAGAVLRELRDEVESVSPRVGLMDGYATFMKVIQDSPALRSRMWAIGQEVLLNLEHTLREETGSADDDMTPTLMAGQINWLHGTVLAAIGGRMVAGGKPSEVSRDMLLLLDEMEELLSEKVLNYAVRGAL | not soluble
5 | MAHHHHHHMGELFSIKNLFICSNERSVEELRTAMEGLLKKERAEGAGGGEKEAKEETHPGGKKYEMIKDYLDANKNNVLHFAIYGNNMNNVKFIIENTNLINSINSEEQNGLIISVLNRNTQISKYLIEQNIDYNQKDKHKANALLYSLITQNYEIFNLLMEKKNIDINVNSFEKGNLLSVSIFERNIHVLKKLFNKFICPFVEGSVYPHPLLYITYSSDNELLFLYLTYCMYYCTKDDALYKINTANFDHSREEIYVDLDHRQVICSIWDNSTYDLSAFKDVLNMTDEDGTPLCSTCVNNGNSLGKNIFDYFSAPS | not soluble
6 | LKKKVKRTCSNCLKGTAININNDILCIEKGIVSSDYVCSKHRFMPSFSSIKRKIHTCIDCEHFIIFDTSNVEDRAFGICELFTVRKYDGKNKKVCSKFVKRVKKEVC | not soluble
7 | MAHHHHHHMSVEELFATARKYSDSVVGGPAWDRLFSLRLTNEEILCIAKKMILSQPTFLMEVNGTKLEEIPPLAVAVRIEAFTNVPKSEGESGGVEKAVALEEKRTAAQQREVLRELASVRAQYRAVLREGNDLMACIDEEERRWNKIEMHREEEQRKRKEHPAAPPSEHDEHIRKNVCALETLQQKREKEEESAQATARTVMAEKKRKKTGKGSRGGGGSEKKFASTSNVTSKEAEIRNVRAHNTALRRLLEKLANELKEEEQTMENLSIDLRGFMSDINKLEKAKLLLTVEHGMLMNTTARLQQSLRDQKEKLRQEQEAAAAEQREISRRLLVQQERTKKSLHEKNGTTELLHRLKTNLSK | not soluble
8 | SLSEGYLSGLEYWNDIHWSCASYNEQVAGEKEEETNSVATLSYSSVDETQVRSLYVSCKSSGKFISSVHSRESQHSRSQRVTVLQTNPNPVFESPNLAAVEICRDASRETYLVPSSCKSICKNYNDLQIAGGQVMAINSVTTDFPSESSFEYGPLLKSSEIPLPMEDSISTQPSDFPQKPIQRYSSYWRITSIKEKSSLQMQNPISNAVLNEYLEQKVVELYKQYIMDTVFHDSSPTQILASELIMTSVDQISLQVSREKNLETSKARDIVFSRLLQLMSTEITEISTPSLHISQYSNVNP | not soluble
9 | MADEERLKEFKEANKIVFDPNTRQVWENQNRDGTKPATTFQSEEDIKRAAPESEKDTSATSGIVPTLQNIVATVTLGCRLDLKTVALHARNAEYNPKRFAAVIMRIREPKTTALIFASGKMVVTGAKSEDDSKLASRKYARIIQKIGFAAKFTDFKIQNIVGSCDVKFPIRLEGLAFSHGTFSSYEPELFPGLIYRMVKPKIVLLIFVSGKIVLTGAKQREEIYQAFEAIYPVLSEFRKM | soluble
10 | MGSDKIHHHHHHMTTDSSNNRTISSKSTLSSKSIINVGPFTPHIEFIGQQQTPVIIIDDFGADLSQLIDIAIDDSQFNQDQGSYYPGQRAPLPKQYVIDVINAVYQLIYDTYKVPHSLRLKPQQCVFSVIDKPAQRLLPLQCMPHFDTPDPHYFAILHYLNNGDHGDTGFFRHNTTQYEQISPHNIDHYFNQAQPVVDAQQTLMPDYVVDSNDHYTLYHQVHYRPNRLVIYPGNLLHSTLVNPVTDIDSSPKTGRLTANIFINFK | not soluble
11 | AMYEKPPVEKLIEELRQLKEKAYKGGGDERIQFQHSKGKLTARERLALLFDDGKFNEIMTFATTRATEFGLDKQRFYGDGVVTGWGKVDGRTVFAYAQDFTVLGGSLGETHANKIVRAYELALKVGAPVVGINDSGGARIQEGALSLEGYGAVFKMNVMASGVIPQITIMAGPAAGGAVYSPALTDFIIMIKGDAYYMFVTGPEITKVVLGEEVSFQDLGGAVVHATKSGVVHFMVDSEQEAINLTKRLLSYLPSNNMEEPPYIDTGDPADRDATGVEQIVPNDAAKPYNMREIIYKIVDNGEFLEVHKHWAQNIIVGFARIAGNVVGIVANNPEEFGGSIDIDAADKAARFIRFCDAFNIPLISLVDTPGYVPGTDQEYKGIIRHGAKMLYAFAEATVPKITVIVRKSYGGAHIAMSIKSLGADLVYAWPTAEIAVTGPEGAVRILYRKEIQQASNPDDVLKQRIAEYRKLFANPYWAAEKGLVDDVIEPKDTRRVIVAGLEMLKTKREYRYPKKHGNIPL | soluble
12 | MNGNRAQPMNMPNEPHPKLKLEQYLGIQIKRQRQAQELKLADVARIAGISQGMLSKIENAQVSTSLDNLSRLCDVLGMPMSKLFSQYDQQGSSALLVRADEGLEVVRRGTEKGHTYHLLNHTRGPKKSFEAYMVTMDDASEEFPTFSHPGTEFLHLLEGELIYRHGNQLYPMQAGDSLTFDGDIPHGPEQLVQVPIKLLSIMNYGAQGD | not soluble
13 | MGSDKIHHHHHHMTQLSNKTKDSCNWDSIVIGSGLGGLVTASQLASKGAKVLVLEQYKIPGGSGGSFKRKGFTFDVGASMIFGFGNKGYTNLLTRALKDVGQKCETIPDPTQLAYHLPNQLEISVDRDYQKFITKLINLFPHEEKGIKHFYETCWDVFNCLDSMPLLSIEDPAYLMKVFFKSPLSCLGLARWLPVNAGDVAMRYIKDPDLLRFIDIECFCWSVMPANLTPMINAGMVFSDRHYGGINYPKGGVGVIAEKLVKGIKNLGGEIRYKSRVKKIIFEKGNAIGVSLENDEEIFSKTVVSNATRWDTFGGQGIKSPLVATENKPTSEKKWENRYIPSPSFLSLHLGVNVDSIPANTHCHHLLLDKWEEMDKEQGVTFVSIPTLLDPTLAPSGSHIVHAFTPSSIDNWDGLSNKEYLAKKKEDGDKLISKLERLFPNLSQNILHKEIGSPRTHKRFLARNKGSYGPIPSMRLPGLLPMPFNTTKINGLYCVGDSCFPGQGLNAVAFSGYACAHKIGTKLGMNKWELPE | not soluble
14 | SLAHVGTWDWDITNETLAWTDETYRIFGVKPQEFKATYEAFLFYIHADDRQAVIDAVNDAINNDSSYSIKHRVIRPSGEIREVLEKGQVLRDENGKASRIIGAVLDIT | not soluble
15 | MSLRMKVFEIVKSSTENEIVRIHVELPRLKYLKDSNFEEKFNSEVEEKIKKFVNEVKGIAQEDHDKDVQHTPYEAYVSVDVRYEGKDFLSFVVYYYQFTGGAHGITFFETYNIDLKNSKVLKLYDIIKEEAEDTIKSNILKQIEQNNTDFFPDAPMNILKDDIFSREFTISKDGLIIMYPHYDLAPYASGMPEFVIPWNVIEKFLKYDILSLLKEGHHHHHH | soluble
16 | MGAIQFQTAPKLPVTVLLAAKNEAVNLPRCLAALGPAERVIVLDSHSTDATAEIARQHGAEVAQFDYRGGYPKKRQWALDTIPFGTPWILLLDADEVVPEDLWKEIGNVTRQPDADAYLITKGFHFLGRKFKHGGFSHSAVLLFKTGMARFEKLFDDDLNGLDMEIHERVVVDGRIGKLKTPLVHEDFKGLEAYITRHNKYSTWEAKVRHHYLTTGRYGEQTIKPRLFGNSQERRRFLKALIIRLPFEPQIWFIYHYLLRLGFLEGRPGLIASQIRAAYIAQARAKIYELRLNTPSRLEHHHHHH | not soluble
17 | MAEIIFNLSADDEGIGKHNYLCSLISQQSARCISGYVFSSSGFGESTTDVVFAGNGLIYENGYLLARSERFCMEEQLIINEIDVECIRAERRVNTTFAANKANCPGKEAVRISTEFVNSKDLNLTRTFNPHPFVPQGNELNSRLEHHHHHH | not soluble
18 | MKQEETLTKVKVAEVTHSIFYAPLYVAESKGFFKEEGLDVDVNTTWGGDKTMTSLLSNGSDIALVGSETSIYVEAQGAKDPVINFAQLTQTDGTFLVAREDVEHFDWDQLKGKTFLGQRKGGMPQMVGEYVLNKHKIDPHKDIDLIQNIDFANIANAFASGTGEYVQLFEPQLLSLRKKASAISWLHSEKNQERFLIRLLWRNKAILEHHHHHH | not soluble
19 | MSLNSIQHIRKAEIHVHLEATIGPDLCRKFAKRNKVTLTDDIFGSQYAYAWDDFYDFIKKYDLVTSVIHTPEDYRELTYSYLKECAKNNVLYVEAMISSTHAKLKGMSYHSFLEGVAEGSKQAEDEFGIISKYIMNGIRHLGPESVQKTAEEVLEFPHKDLVGFGLAGDELHFPPKLFTKTFDMLKEANFPITVHAGEWDGPENIRHAINLLHPTRLGHGVRSIEDPDLVKEIIDKDIILETCPTSNIATKIYEDYKSHPVKTLFDQGVKVTVNSDDPPFFNATIQGEYKVMEDLGLNEKELTSLTHNAIKYSFCDEENKNELLAKLNEGHHHHHH | soluble
20 | KVILYARVSSSTQKDELVNQVKYLEEQVKEYDLVITDIGSGLNMKRKGFLKLLRMILNNEVSRVVVAYPDRLVRVGFEILEEVCKAHNCEIVVLNQEDKEEELVEDLMSALVSFSGKLYGMRSHEYEKVKKCAEELKNWKI | soluble
21 | MARASSTKARKQRHDPLLKDLDAAQGTLKKINKKKLAQNDAANHDAANEEDGYIDSKASRKILQLAKEQQDEIEGEELAESERNKQFEARFTTMSYDDEDEDEDEDEEAFGEDISDFEPEGDYKEEEEIVEIDEEDAAMFEQYFKKSDDFNSLSGSYNLADKIMASIREKESQVEDMQDDEPLANEQNTSRGNISSGLKSGEGVALPEKVIKAYTTVGSILKTWTHGKLPKLFKVIPSLRNWQDVIYVTNPEEWSPHVVYEATKLFVSNLTAKESQKFINLILLERFRDNIETSEDHSLNYHIYRAVKKSLYKPSAFFKGFLFPLVETGCNVREATIAGSVLAKVSVPALHSSAALSYLLRLPFSPPTTVFIKILLDKKYALPYQTVDDCVYYFMRFRILDDGSNGEDATRVLPVIWHKAFLTFAQRYKNDITQDQRDFLLETVRQRGHKDIGPEIRRELLAGASREFVDPQEANDDLMIDVN | soluble
